Test results published in publication PMC12635110.

Target: MCPH1-BRCT-eCR (tandem BRCT 2-3 of MCPH1) tandem BRCT domain (BRCT2-3)
Assay: FRAP of eGFP in live cells
Conditions: reference: DMSO, outside spontaneous damage foci; sites S139

Substance: H2AX (from UniProt P16104) ETO ~1 h, within a damage focus
- other: FRAP recovery half-life: same; reference 1.07 ± 0.76
